Assay: soluble fraction after stress (log2 fold change); higher = more stays soluble; pooled small domains, quantitative proteomics
Settings: stress: 75 degC
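Further: 20 min heating vs room temperature control held 20 min.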

Row | Sequence | soluble fraction (log2)
1 | HMQSFIEELLPVVDNFERSLAVVDPSDEIKNFLKGYEMIYNQLMEVLKSQGVEVIKTEGEEFDPNFHQA | -0.121
2 | HMQSHIVPDVKSQHIAQAKALLESKQMKAVVIDSNFVKGLPAGIVLDQTPIGGARVKENRTIYLTINTL | -1.56
3 | HMQSMEIDENEIPSIDKLSEYIEYFKRIYNALFDDKQLAITNIDVLERHFANNFNTLRFKMDE | 0.169
4 | HMQSNDAGELEAVVKGIIDANPKVVADYLAGNQKVVSFFVGQAMKATKGKANPKMVSEILGKLL | -0.0975
5 | HMQSQIAQLYNPLLGYVKKRINSREDAEDLTQDIFLKLSKSNKDGVDNLKSWLYTIAKNTITDYYRKKKII | -0.0844
6 | HMQSREISYSDFVASVERGEVATVILDGENIRFKGGDNVEYVTVRPADTNVTDLLIENQVVVRAEK | 0.231
7 | HMQSTVSTHQKTLALDTAQSGIPVFPVSSTHKRPLTDHGYKDATADADAVRKIWQQFPSAFV | 0.28
8 | HMQSVKTQPLRDWLLAHFDKPYPDDEDKVRLAEASGMTRAQVGNWFINARVRTWRPMVLDLGEEIERESV | -0.325
9 | HMQTEFVISSGEQPKRLDVFLLQREPYLSRAALQRMIAAGWVRVNNHLAKSSQRIKAGDVIVFD | -1.42
10 | HMQTFGTMIAALRKEQGMTQLELAEKMGVTDKAVSKWERDLSFPDVNSLPKLAEIFHVSVDEL | -0.16
11 | HMQTLGADLRALRKARGLTLTDMAETLGRSVGWLSQVERDLSEPSITDLRHMARTLGVSVSMLFS | -1.52
12 | HMQTLQNNLKQIRSRVGLTQGELASRAGISRQAYSTLESGNANPSTEVSLRLAEALNERIESLFFLANQ | -0.495
13 | HMQTSETVYTTDKVNVRAGADTSSDKLGSVEKGTSLTRTGTDGDWSIIDYNGTTGYIKSEYLSATAPE | 0.566
14 | HMQTTKTGTITASSLYVRSGASTSHKVLGTVSKGKTVQIKDTQDGWHKISYNGDHGWVSGKYVSTT | 0.226
15 | HMQTTVHLSPEEMVIMNALKQESPIDLPILRAQVEMSNKLWDTSMKNLSKLGQLKVEKIGEQVSVSLI | -0.582
16 | HMQVAPDLMQRLTSQGHVDEKLSDALVHARQITNFEGRRRQMQFIGKLMRKLSEESIEAVKDALNEQRM | -0.313
17 | HMQVDENNINKRIDKYLSENTEYSRSTIQKMIDNGNITVNSKPTKSSYKLELNDIITIDNNFKE | 0.0359
18 | HMQVEYTRGELIQDLEGGKIVYAGISPSRETPTGEVNFILDSGLTRTLYVTDVSEIEQLLISYDIDPEVKK | -0.0196
19 | HMQVFDSNEIDEVVKKVIENNPQAVADFKKGKSNALQFLAGQVMRETKGRFNPNVVQERIRLLLT | 0.671
20 | HMQVLLTRREKEILKLIAEGLTSAEIGKRLFISTTTVDTHRKHLLEKLKAGNTAILIKTAVQLDLI | -2.53
21 | HMQVPWYQRLKEKRLEYGVSQNKLATHIGISRQYMSEIETGKVTPSDSLQATLFDILEQFNPDA | -0.817
22 | HMQVRVERSRDKVVISGVNYYIHPVRKGETVYSIARAYGITTQDLVRENPSAAEGLKEGQSIRIPERLVD | -0.438
23 | HMQVSDEGPIKAILQEVLDKSPTQLADYASGKVKLRQYFFGEAMKALKGKANPQVINKLLDEMLPPVAA | -0.0324
24 | HMQVSDVTELRTILEKVITENESVATEFKEGKDAAMNFLVGQGMKATRGAADPALLKEIITGIL | -0.0525
25 | HMQVSITGYLGGEKIGLFDDAKFKALAAKQGIAIDYRKAGSPAMMDADRKGMDYLFPSSRAAVEYGNAKGV | -0.00209
26 | HMQVTDTGTIEGEIDKVLAANPDRVTEYHDGKEKILGWFVGQVMQTTKGKANPQMVNQLFLEKLK | 0.0105

Row | Sequence | soluble fraction (log2)
27 | HMQVTPQVLRLLDVLGDKELSLRQIAEALGLSDRKNIMRNYVVPALDSGRVVRTVPNKPNSRFQKYRK | -0.739
28 | HMQYDALVLNLLQEKNLTSESLKDAQRAFAKSHNLSTLPSKSQILQAYFQLLEQGKIEKNPDFELLL | -0.394
29 | HMQYFDIETEIQKFIKSENNLSDFDKETLQSFLYQLSKGSPEENTAKKVVDILNKFLPLTTAIINMIKALT | 0.0503
30 | HMQYYITKIANYDQVSPNLLVRTAEGQYMVKTNADILDTDVTKLTEEEIRKDWGYLFENGFSELV | -0.498
31 | HMRAAEPTTDAQRDRRRRIVLTAMTMLQERGYDEIQMRDVAQQAGVALGTLYRYFPSKEQLFAHVLVE | -1.71
32 | HMRAAFEHLTIGQTVSGLVKSQARGVSLVEIEGQTVAMRLPQPVAVGDTLRLRFAGHMPQPVFLLDT | -1.59
33 | HMRADYVGGLDPAGDNFLALRTGPGSGYAMILPMGPGTFVTVLRRNGKWLLVELEDGTRGWAYGSYILG | -2.32
34 | HMRAGALTTLTERERNVFDLVVTGHSNPEIARQLSIADVTVKTHVGHILSKLGVRDRVHLVIWAHRQGLAD | -2.84
35 | HMRAMWENLFFQYKEGFLPEEYYKQGIATGIRLAGPKFVEMNIPMQKEFEDEVHRLLAEHEKSVK | -0.914
36 | HMRASVTYVVQVNGKLRGKLEVAPDIDPEELKKLALEVENVKHSLQGWTVKKVIVIPGKMVSIAAGK | -1.78
37 | HMRAVEGKRLKRLLRTNLIAIERDQILQYPLRKRPLAIVTRAVRATNPDAVIVNDAGDDVFARALDVLLAS | -1.44
38 | HMRDAKSQLQEALQKSGRLPEYELVSVEGPPHAPVFTYRVRIDGAVVGEGQGASKQAAQQAAAQSALKSG | 0.0311
39 | HMRDDAIQQGREIVERELHRLDLAYTTLTDVLAKLEYEKLDDLYAAVGFGIRSPHSVAAAALQVERDKA | -0.322
40 | HMRDGHEQLQGVLSAIKFHQANFLIGVLDDGTTVKGNMLSPQVGLEYTFRGRRERHPRWGEQFAFMDYRV | -3.31
41 | HMRDIGKNIRYYREKKGYSQEQLAQLLFVTRQTVSNYETSRSRPDVETLVKLAGLLDIDVTDLIYGPR | -2.74
42 | HMRDKSITFSEFVKLLDEGQIQKVTLTGNEILGTQKSGDKFRTYAPPQYEGLGNKLVERSVEVTAKE | 0.378
43 | HMRDLVTYVVQVNGKLRGKLEVSPSTDDNSLKTMALELENVQRALEGLSVKKVIVIPGKMVSIAAG | -0.972
44 | HMRDVVVVPDLSGLTQMEALSKLDAESLNIGEINYGVSEMPEGVIFKQDPVYGTELMKGDTVDIFISGR | -0.423
45 | HMRDYKTHLQEVLQSKGEVNIWYKLIDEKGPDHNKKFVMQVGIDSKILGFGEGKSKKEAEQVAARKALDNI | -0.384
46 | HMREGIQLGDPVRVIRDPLFGKIGAVSGLPSELRAIPTESEVRVLEVRFPDGTTTVVPRANIEVIEG | 0.487
47 | HMREIEVNYAAGDSVRVIDGPLAGFIGVVSSVEPDKNKVNVTVSMFGRETPVELELDQVETLD | 0.111
48 | HMREISSDELHSLFSADQRGDLVINETTRLSIEKLYALHTPEEREAKVNELSGVLPSEAHRQLVHFLDYFD | -1.42
49 | HMREITVEELYELEGIRIVGTIPGISAWVAESGRQMVFLVGQKVKGHDLLEVGESRVVLRKGDSVVNVLL | -1.56
50 | HMREKPRETFQRIAEKVGQTLRKGPVRVQQMDLLFSESREQVMEVLRAMAESGEIRIQDDTLHWNGHT | 0.173
51 | HMRELPKRPEIRYAAGDRVFHKAFGNGLVKQVAQTAGGARVTVDFGEGKGVKTFAGDAPMIKI | 0.391
52 | HMRELSDFEKLLFTTTLERKMINLAMLLTRSNKADSKDLIQDSYLKAIENQVQFNGNNIDAWVITILKNTF | -0.352

Row | Sequence | soluble fraction (log2)
53 | HMRENAARNRNVNLDIGETLRVDAWSPERRARVQYRGAAWDVELAPNAPATVGEFRIVEVRGNVLVVTP | -0.604
54 | HMREPIPVPSRPIRAGDLVEIPGTNRPAEVTAVKGDRLVLKAGVLSMTVKNDEVRLIEDDERAAM | 0.505
55 | HMREQAHEVAGKLGYPVMVKASAGGGGKGIRIVRTEDELDQAFEAAQSETKAAFGDDQMYMEKVI | -0.0878
56 | HMRESDQSTVELSLERTIQEALMVNPRTSSVEEFSFEWGTGRVKVSFIVYSVDGEPFTVDSIIE | -2.45
57 | HMREVEAPRDLLAALGERPGALDAWKALSFTHQREYVEAIEDARKPETRERRIANAVKMVAERS | 0.386
58 | HMREVPHGEYEVKIEKLELVESKAGDPMVTVWFKVLAGDYKGSMIFMNQVITKGFQIHIMNEFLR | -0.308
59 | HMREYEKAVDYVRRMISSGSLNVGDRLPTERELSLELDISRNSTREAMRMLENMGIIVSRHGSGNYISGN | -0.682
60 | HMRFDADELQKAYDLFDADENTPFKTIKQAYYALARRHHPDKNGDQEYFKVINNAFQLIQEHRRRRDN | -0.437
61 | HMRFGNHHVYRTLMVLSDQKRKGRKQIADAVGIGEGSMRTIIEYLRGLDMIDIRQTGVKITRHGNAFL | -0.115
62 | HMRGAARRDRAVGERAVSKDTILDATRALLRKGSALEIRAIDIAEESGLSRQTVFQYYPVIRLIFFELSD | -0.00574
63 | HMRGETSYANDIIKRLKQANLIVVEGTLYPLLNRLKKDGLLHYEWRESQQGPPRKYYGLTEEGEA | -0.273
64 | HMRGFGEVGQLPSGRYRARYTGPDGGRHSAPITFVARIDAEGWLVDQERMISRGEWEPPARQ | -0.238
65 | HMRGFGYVRRLPSKRYQASYAGPDLQRHVAPTTFTTKADAESWLGAERKVVESGSWRPPAVREAEARLS | 0.462
66 | HMRGLIEPLSQRELEVLMLMARGQSNAHIADQLNISENTIKWHGRNIFGKLGVSNRTEAVITSQEMGMLAT | -0.727
67 | HMRGRFGNAAPARNLGDHPQGGAINVKAGRYGPYVSWGKVNATLPKDSDPEKVTLEEAVALIAAKQSGQG | -0.111
68 | HMRGVDRPLTLPRHWRRNAGRLVKVTLANGSAVTGRVLDPGEERVTLEVSGERHEVAYADVKKALVQVEF | -2.07
69 | HMRHLSVPNRQVEGALDHIRSQGWLAEGMRVFASEDGSARLIPLGPGAPLEMLEPLAKFDVISHEGKPY | -0.149
70 | HMRHSLAAALTELRRLAALDLGDFFRFEYVSHTDSLGGKQQAYTEGIRVSFGVYLGVNKKDRLNVDPVV | -3.42
71 | HMRHTRQRQAVLDALVRSGQALSPQDLLGQAKSAVPSLNLSTVYRQIKGLQDAGQIVRVELPGQPPRFEM | -0.0693
72 | HMRIAQYRQIENDLLEQINLGYYKKGDLIPTELELSATYHVSRVTVRKATDNLVAKGILQRVAGVGTFVSR | -3.14
73 | HMRIATVTPIEEDQASDRVVAVYNDIKSTKQIDFIPNFWKVIAVNPDLLEQVWGQLKTLMHPEEVG | -0.996
74 | HMRIEDTMDYINKIKEKLKNNGGVITSKEFTRSNIPTIYLTRMVETGELIRIDRGIYINSSG | -0.781
75 | HMRIEYYDDEELDRYIGTPASGYREAAVEEFREILLTLDADDVPGWVRSLQLRGIEFPESLRPELYL | -0.568
76 | HMRIFDDNMIFPTEAEISAALKRLVMDLPKVGFLQGHGERAVDNVGERAYSMFTHANNFRYALINQGFVT | -0.029
77 | HMRIHKQLGDRIRNLRLSSGMNQEELAFKSGISAAHLGQIERGLKSPTISTIQKIAKALNVTLPILF | -0.631
